The data set has as its system Bacillus subtilis DB104 (SP-AmyQ fusion secretion). The experiment in a line: AmyQ secretion efficiency, weighted average sort bin (1 = best secretion, 10 = worst) (bin number (weighted average, 1-10)); higher = lower secretion efficiency. An outline of the steps: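 The secretion score was taken as the read-frequency-weighted mean bin number, normalised to beads per bin, with low-abundance sequences excluded. Bins came from large-particle flow cytometry sorting of occupied alginate beads (~65 nL, about 0.3 cells each, with fluorescein-starch) into 10 equally populated groups by green/red fluorescence ratio after about 13 h at room temperature and nile red staining. The cells were a B. subtilis DB104 library with mature AmyQ fused to designed signal peptides, integrated at amyE, and each bin's amplicons were Illumina-sequenced.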

Where “and” joins values, the source holds several entries; their conditions need not be identical. Identical values can stand only once.

Sequence MKKVLMAFIICLSLILEDDDEEDSGAKAESV had an AmyQ secretion efficiency of 4.1. With MSKLLAAGIIGLLTVSIASPSFAAEK the figure was 3.64; with MIAYFGKCLLLVTIMFLGVLGMQQANHG, 5.4. The sequence MKRTWNVCLTALLSVLLVAGSVVPFHAEAKKP showed an AmyQ secretion efficiency of 1.9. With MRSKKLWISLLFALFTMAFSNMSAQAAGK the figure was 2.16; with MKRIRIPMTLSTLALGAALTIAPLSFASAEEN, 3.35; with MFNRLFRVCFLAALIMAFTLPNSVYAQKR, 2.62.

MKTLRTLCVLMILSGVIFFGLKCDAKDI yielded an AmyQ secretion efficiency of 4.31. For MKRMIVRMTKRKRRRCLAFSSFSASARAASE the value was 8.6. In turn, MRKKTKNRLISSVLSTVVISSLLFPGAAGASEE showed an AmyQ secretion efficiency of 2.7. For MKWMCSICCAAVLLAGLGAAQAEAV the value was 3.8.

For the sequence MKKWMITIAMLILAGIALFVFISPIKSHKT, the AmyQ secretion efficiency worked out at 6.77. With MNKKYFVLIVCIIFTSALFPTDKKVTAAQG the figure was 1.1. For MRFTKVVGFLSVLGLAAKKKLTAQAEKA the value was 7.51; for MKVPKTMLLSTAAGLLLSLTATSTSAHYV, 4.19; for MKKLLAAGIIGLLTVSIASPIFAAEK, 1.99. For MKRTWNVCLTALLSVLLVAGSVPFHAEAKKK the value was 2.67; for MLKKIALTLCPAIVGSLLFFTGPASAHVS, 2.54. Consider MTKKAWFLPLVCVLLIRKKLAPAASASAQTT, for which the AmyQ secretion efficiency came to 7.9. With MLTKRLLTIYIMLLGLIAWFPGASQAEEK the figure was 4.32; with MKKWMITIAMLILAGIALFVFISPLKSHKT, 6.27 and 6.6 and 6.11. As for MKKLLAAGIIGLLTVRKKSPSFAAEK, the AmyQ secretion efficiency was 8.11. With MLKKKWMVGLLAGCLAGFSYNAFATEN the figure was 5.96; with MHLIRAAGAVCLAVVLIAGCRFNEDQHQAEDENT, 5.99; with MKKRLIAPMLLSAASLAFFAMSGSAQPAAY, 5.92. With MKKKQVSHARSTKTRRQFVIAVFHTIHASELTP the figure was 8.17; with MKSCKQLIVCSLAAILLLPPEVSFAADS, 2.83; with MKKRFSLIMMTGLLFGLTEEEAFAAEK, 2.39.

Turning to MKKRRIVSILFMFGLVMGFSQFQPSTVFAADK, the AmyQ secretion efficiency was 2.46. In turn, MGSTGSIMFACLILFSFTITTFINTETISAFSN registered an AmyQ secretion efficiency of 4.71. For MRPVFPLILSAVLFLSCFFGARQTEASYSKR the value was 2.56; for MKRIRIPMTLALGAALTIAPLSFASPEEN, 8.17.

On to MKNMSCKLVVSVTLFFSFLTIGPLAHWQNS, for which the AmyQ secretion efficiency was 5.85.

MTGSSVITCVMAASLTLGSLLPAGYATAKED: the AmyQ secretion efficiency was found to be 4.28.

The sequence MKKTIMSFVAVAALSTTAFGAHASAAKR returned an AmyQ secretion efficiency of 2.03.

Regarding MKLAKRVSALTPSTTLAIISTGSAKAKEL, the AmyQ secretion efficiency stood at 7.54.

As for MKKVKKRKRKCLSLILSVLAAPPSGAKAESV, the AmyQ secretion efficiency turned out to be 7.36. For MKKQQYGQSKKVVLGSTLFAGAASAQSI, the AmyQ secretion efficiency came out at 7.51. With MKKWRYTKRQRKLILAGIALFVFISPLKSHKT the figure was 6.51; with MKRIRIPMTLALGAALTIAPLSFAFTASAEEN, 3.82; with MFNRLFRVCFLAALIMTLPNSVYAQKP, 2.44. For MKLWMRKTLVVLFTIVTFGLVSPPAALMVDKP the value was 2.11; for MKKVLMAFIICLSLILSVLAAPPSGEKAESV, 6.63. With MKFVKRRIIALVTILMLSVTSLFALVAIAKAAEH the figure was 4.46; with MFKKHTISLLIIFLLASAVLAKPGEAHTV, 2.82. As for MKRLFMKASLVLFAVVFVFAVKGAPAKGETH, the AmyQ secretion efficiency was 2.19. In turn, MKKRLIGFLVLVPALIMSGITLREANKK gave an AmyQ secretion efficiency of 7.02. For MKKKLAAGLTASAIVGTTLVVTPPEAATI the value was 5.33. On to MKSLPYTIALLFCGLIIVSMAAKGDED, for which the AmyQ secretion efficiency amounted to 8.1. With MKKKQVMLALTAAAGLGLTALHSAPASKAAPL the figure was 4.06.

Consider MVKKWLIQFAVMLSVLSKKRRKKASAVGV, for which the AmyQ secretion efficiency stood at 7.67. Sequence MKKWSTTIAMLILAGIALFVFISPLKSHKT came in with an AmyQ secretion efficiency of 5.92. In turn, MKVLLSALLLLLFAFEPSASGASL registered an AmyQ secretion efficiency of 2.94.

With MKRLLVSLRVWMVFLMNWVTPDRKTNAAAVY, the AmyQ secretion efficiency is 6.68. With MIKKCSVCLWILVLLLSCLSGKSAYAATS the figure was 2.24; with MRPVFPLILSAVLFLSCFFGARQTEASHSKR, 2.35; with MTKLKMLSMLTVMIASLFIFSSQALMVQY, 5.71.

MGLGKKLSVAVAASFMSLSISLPGVAAGFVFVQAAEG displayed an AmyQ secretion efficiency of 4.93. With MKKRLIAPMLLSAASLAFFAMSGSNQAAAY, the AmyQ secretion efficiency turned out to be 3.88.

In turn, MKKIVSILFMFGLVMGFSQFQPSTVFADED yielded an AmyQ secretion efficiency of 4.03. For MKRLLSTLLIGIMLLFFIFFTFAPSAFAKQD the value was 1.97; for MKKQIKKKKTAVVLGSTLFAGAASAQSI, 7.3. For MFNRLFRVCFLAALIMAFTLPNSTYAQKP the value was 2.43; for MKMKSGMEQAVSVLLLLSRLPVQASLTSH, 7.82. As to MNKPTKLFSTLALAAGMTAAAAGGAGTIHAQRR, the AmyQ secretion efficiency worked out at 6.62.

Sequence MLCVMMLLFSSFPVSAQAKDQ returned an AmyQ secretion efficiency of 5.51. For MPIKKKVMMCLAVTLVFGSMSFPTLTNVGGFKE the value was 5.79. For MGLGKKLSVAVAASFMSLSISLPGKQAAEG the value was 4.55. With MKKLLAAGIIGLLTVSIASPSFKAEK the figure was 5.02; with MLCVMMLLFSAIALFLVASFPVSAQAKDQ, 7.1. The sequence MKKGIIRFLLVSFVLFFALSTGITGVQLAPA registered an AmyQ secretion efficiency of 5.59. With MKRTWNVCLTALLSVLLVAGSVDDHAEAKKP the figure was 1.97; with MKKLILAFILSAAAAVGLFTFGGVQQASAKEL, 4. In turn, MLCVMMLLFSAIASFPVSMQAKDQ showed an AmyQ secretion efficiency of 5.6. For MKVLLSALLLLLFAFEPSASTKKL the value was 5.63. As for MGLGKKLSVAVAASFMSLSISLPGWQAAEG, the AmyQ secretion efficiency was determined as 5.06.

As for MKRFSTAYLLLGILCSAAVFLIGAPSRALCAEV, the AmyQ secretion efficiency was 3.3. For MMIKQCRKCKRLLVFGTTAAHAEET the value was 6.79; for MRNLTKTSLLLAGLCTAAQMVFVTHASAAKR, 2.59; for MNTAIIIAIIAAVIVIAALITFNVRNASPG, 8.06.

MLTKRLLTIYIMLLGLIFVILSALSAAWFPGAAQAEEK: the AmyQ secretion efficiency stood at 4.31.

Values taken from the supplement of paper PMC9942255.
